Results on one substance are retold here after patent US20020164791A1.

In this test the target is endogenous BMP released from the ES cells (BMP4) (mouse) (UniProt P21275). Description: cell-based or functional assay.
UniProt P21275, sequence (P21275 293-408 limits assumed): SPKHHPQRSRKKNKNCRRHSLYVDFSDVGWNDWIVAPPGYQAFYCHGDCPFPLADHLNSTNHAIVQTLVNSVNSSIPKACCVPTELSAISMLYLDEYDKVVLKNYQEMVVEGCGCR

As for “mouse Cerberus-like (mCer-1) protein (from UniProt O55233 18-272) (ligand)”, the numbers of primary neural stem cell colonies generated (ES cells in LIF, 20% v/v mCer-1 supernatant) came out at 50 % increase.
